For series [1], the target named is T1, CntA (carnitine monooxygenase oxygenase component) (Acinetobacter baumannii, UniProt D0C9N6).
T1 construct: with CntB (homologous system) or YeaX (chimeric system)
Kind of series: L-carnitine depletion assay with purified proteins. Type of series: biochemical.

The target in series [2] is T2, YeaW (carnitine monooxygenase oxygenase component) (Escherichia coli, UniProt P0ABR7).
T2 construct: N-terminal strep tag II fusion; with YeaX
Nature of the series: L-carnitine depletion and O2 depletion assays with purified proteins. In kind it is biochemical.

Series [3] addresses T2, YeaW (carnitine monooxygenase oxygenase component). Nature of the series: L-carnitine depletion assay with purified YeaX/YeaW; slow conversion to TMA also shown by GC-MS. Type of series: biochemical.
Series [4] addresses T3, YeaW, Rieske-type oxygenase component of carnitine monooxygenase from E. coli (E. coli) (UniProt P0ABR7).
T3 sequence: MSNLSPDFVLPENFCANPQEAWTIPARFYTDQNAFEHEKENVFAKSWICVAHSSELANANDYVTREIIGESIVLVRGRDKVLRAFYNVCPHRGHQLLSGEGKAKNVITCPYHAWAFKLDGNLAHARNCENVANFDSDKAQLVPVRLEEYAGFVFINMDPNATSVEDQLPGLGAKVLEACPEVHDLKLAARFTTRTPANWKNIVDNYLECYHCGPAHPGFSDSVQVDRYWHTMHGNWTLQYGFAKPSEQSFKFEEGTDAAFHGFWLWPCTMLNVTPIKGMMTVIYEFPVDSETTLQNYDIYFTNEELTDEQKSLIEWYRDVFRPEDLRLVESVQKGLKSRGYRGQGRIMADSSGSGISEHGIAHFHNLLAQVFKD

In series [5] the target is T3, YeaW, Rieske-type oxygenase component of carnitine monooxygenase from E. coli (E. coli). The source holds these as a separate data set.
For series [6] the target is unchanged. This is another data set of the same source.
For series [7] the target is unchanged. This is another data set of the same source.
Series [8] concerns the molecule itself. Nature of the series: SEC; analytical gel filtration, Superdex 200 increase 5/150 GL, 10 mM Hepes-NaOH pH 7.5, 150 mM NaCl, 0.45 ml min^-1, 20 µl samples (~300 µM), calibrated with protein standards.

Read-outs that look alike come from different tables or passages of the source.

The results in this text go back to PMC9508527, “Two-component carnitine monooxygenase from Escherichia coli: functional characterization, inhibition and mutagenesis of the molecular interface” (Bioscience Reports, 2022).

In general, IC50 refers to the midpoint of a concentration-inhibition curve. Read a low IC50 as higher potency. A word on the stoichiometry N: it is a count of units in the complex or per binding partner.

T2 sequence (P76254 whole entry, one chain of several, the tested form may be a part): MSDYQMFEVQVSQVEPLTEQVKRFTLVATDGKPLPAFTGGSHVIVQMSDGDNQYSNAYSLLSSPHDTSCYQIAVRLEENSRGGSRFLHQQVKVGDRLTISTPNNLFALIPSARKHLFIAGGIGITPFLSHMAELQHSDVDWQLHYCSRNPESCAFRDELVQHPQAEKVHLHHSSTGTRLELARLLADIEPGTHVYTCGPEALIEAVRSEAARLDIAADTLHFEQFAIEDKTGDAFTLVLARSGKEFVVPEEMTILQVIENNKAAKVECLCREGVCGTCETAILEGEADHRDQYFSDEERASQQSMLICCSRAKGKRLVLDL
T1 sequence (D0C9N6 whole entry): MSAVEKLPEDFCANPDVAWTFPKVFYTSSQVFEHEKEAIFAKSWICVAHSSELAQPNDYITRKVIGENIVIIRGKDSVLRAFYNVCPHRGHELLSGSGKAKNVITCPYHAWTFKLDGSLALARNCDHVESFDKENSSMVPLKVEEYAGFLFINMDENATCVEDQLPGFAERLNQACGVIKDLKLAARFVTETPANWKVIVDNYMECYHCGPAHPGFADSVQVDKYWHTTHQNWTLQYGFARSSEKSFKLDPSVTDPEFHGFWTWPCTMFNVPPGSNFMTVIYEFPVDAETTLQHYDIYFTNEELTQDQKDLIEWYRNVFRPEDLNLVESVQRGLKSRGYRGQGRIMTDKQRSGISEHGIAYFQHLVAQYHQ

Turning to `C[N+](C)(C)C[C@H](O)CC(=O)[O-]` [L-carnitine], the “L-carnitine depletion assay with purified proteins” value in series [1] is 353 ± 68 nmol/min/mg. The “L-carnitine depletion and O2 depletion assays with purified proteins” value in series [2] came out at 1288 ± 48 nmol/min/mg.

In the case of `C[N+](C)(C)NCCC(=O)[O-]` [meldonium], inhibition in series [3] was half-maximal at 612 ± 68 µM (IC50).

B1: CntB, reductase component of carnitine monooxygenase from Acinetobacter baumannii (enzyme)
chain: MASHYEMFPAVVTRVEQLTPLIKRFTFKRQDGQNFPRFSGGSHIIVKMNEQLSNAYSLMSCTQDLSTYQVCVRKDVEGKGGSVFMHDQCNEGCEIQISEPKNLFPLAETGNKHILIAGGIGITPFLPQMDELAARGAEYELHYAYRSPEHAALLDELTQKHAGHVFSYVDSEGSMLNLDELISSQPKGTHVYVCGPKPMIDAVIDCCNKHRYRDEYIHWEQFASTVPEDGEAFTVVLAKSNQEIEVQSNQTILQAIETLNIDVECLCREGVCGTCETAILEGEAEHFDQYLSDAEKASQKSMMICVSRAKGKKLVLDL
In the case of B1, in series [4], the Relative L-carnitine depletion activity of the chimeric enzyme (YeaX/YeaW = 100%) came to 20% and the Relative O2 depletion activity of the chimeric enzyme (YeaX/YeaW = 100%) was found to be 4%.

B2: YeaX variant K313Q (enzyme)
chain: MSDYQMFEVQVSQVEPLTEQVKRFTLVATDGKPLPAFTGGSHVIVQMSDGDNQYSNAYSLLSSPHDTSCYQIAVRLEENSRGGSRFLHQQVKVGDRLTISTPNNLFALIPSARKHLFIAGGIGITPFLSHMAELQHSDVDWQLHYCSRNPESCAFRDELVQHPQAEKVHLHHSSTGTRLELARLLADIEPGTHVYTCGPEALIEAVRSEAARLDIAADTLHFEQFAIEDKTGDAFTLVLARSGKEFVVPEEMTILQVIENNKAAKVECLCREGVCGTCETAILEGEADHRDQYFSDEERASQQSMLICCSRAQGKRLVLDL
B2: in series [5], the residual L-carnitine depletion activity (wild type = 100%) came to 30% and the residual O2 depletion activity (wild type = 100%) turned out to be 30%.

B3: YeaX variant R271Q (enzyme)
chain: MSDYQMFEVQVSQVEPLTEQVKRFTLVATDGKPLPAFTGGSHVIVQMSDGDNQYSNAYSLLSSPHDTSCYQIAVRLEENSRGGSRFLHQQVKVGDRLTISTPNNLFALIPSARKHLFIAGGIGITPFLSHMAELQHSDVDWQLHYCSRNPESCAFRDELVQHPQAEKVHLHHSSTGTRLELARLLADIEPGTHVYTCGPEALIEAVRSEAARLDIAADTLHFEQFAIEDKTGDAFTLVLARSGKEFVVPEEMTILQVIENNKAAKVECLCQEGVCGTCETAILEGEADHRDQYFSDEERASQQSMLICCSRAKGKRLVLDL
In series [6], B3 had a residual L-carnitine depletion activity (wild type = 100%) of 4% and a residual O2 depletion activity (wild type = 100%) of 11%.

B4: YeaX variant D320N (enzyme)
chain: MSDYQMFEVQVSQVEPLTEQVKRFTLVATDGKPLPAFTGGSHVIVQMSDGDNQYSNAYSLLSSPHDTSCYQIAVRLEENSRGGSRFLHQQVKVGDRLTISTPNNLFALIPSARKHLFIAGGIGITPFLSHMAELQHSDVDWQLHYCSRNPESCAFRDELVQHPQAEKVHLHHSSTGTRLELARLLADIEPGTHVYTCGPEALIEAVRSEAARLDIAADTLHFEQFAIEDKTGDAFTLVLARSGKEFVVPEEMTILQVIENNKAAKVECLCREGVCGTCETAILEGEADHRDQYFSDEERASQQSMLICCSRAKGKRLVLNL
With B4, in series [7], the L-carnitine depletion activity (wild type = 100%) came out at 9% and the O2 depletion activity (wild type = 100%) is 11%.

B5: YeaX variant D320K (enzyme)
chain: MSDYQMFEVQVSQVEPLTEQVKRFTLVATDGKPLPAFTGGSHVIVQMSDGDNQYSNAYSLLSSPHDTSCYQIAVRLEENSRGGSRFLHQQVKVGDRLTISTPNNLFALIPSARKHLFIAGGIGITPFLSHMAELQHSDVDWQLHYCSRNPESCAFRDELVQHPQAEKVHLHHSSTGTRLELARLLADIEPGTHVYTCGPEALIEAVRSEAARLDIAADTLHFEQFAIEDKTGDAFTLVLARSGKEFVVPEEMTILQVIENNKAAKVECLCREGVCGTCETAILEGEADHRDQYFSDEERASQQSMLICCSRAKGKRLVLKL
In series [7], B5 had a residual L-carnitine depletion activity (wild type = 100%) of 3% and a residual O2 depletion activity (wild type = 100%) of 7%.

B6: YeaX variant R271K (enzyme)
chain: MSDYQMFEVQVSQVEPLTEQVKRFTLVATDGKPLPAFTGGSHVIVQMSDGDNQYSNAYSLLSSPHDTSCYQIAVRLEENSRGGSRFLHQQVKVGDRLTISTPNNLFALIPSARKHLFIAGGIGITPFLSHMAELQHSDVDWQLHYCSRNPESCAFRDELVQHPQAEKVHLHHSSTGTRLELARLLADIEPGTHVYTCGPEALIEAVRSEAARLDIAADTLHFEQFAIEDKTGDAFTLVLARSGKEFVVPEEMTILQVIENNKAAKVECLCKEGVCGTCETAILEGEADHRDQYFSDEERASQQSMLICCSRAKGKRLVLDL
Take B6: in series [6], the residual L-carnitine depletion activity (wild type = 100%) came to 80% and the residual O2 depletion activity (wild type = 100%) turned out to be 70%.

B7: YeaX variant K313E (enzyme)
chain: MSDYQMFEVQVSQVEPLTEQVKRFTLVATDGKPLPAFTGGSHVIVQMSDGDNQYSNAYSLLSSPHDTSCYQIAVRLEENSRGGSRFLHQQVKVGDRLTISTPNNLFALIPSARKHLFIAGGIGITPFLSHMAELQHSDVDWQLHYCSRNPESCAFRDELVQHPQAEKVHLHHSSTGTRLELARLLADIEPGTHVYTCGPEALIEAVRSEAARLDIAADTLHFEQFAIEDKTGDAFTLVLARSGKEFVVPEEMTILQVIENNKAAKVECLCREGVCGTCETAILEGEADHRDQYFSDEERASQQSMLICCSRAEGKRLVLDL
In series [5], B7 had a residual L-carnitine depletion activity (wild type = 100%) of 7% and a residual O2 depletion activity (wild type = 100%) of 11%.

B8: YeaW, Rieske-type oxygenase component of carnitine monooxygenase from E. coli (enzyme, UniProt P0ABR7 1-374, looked up)
chain: MSNLSPDFVLPENFCANPQEAWTIPARFYTDQNAFEHEKENVFAKSWICVAHSSELANANDYVTREIIGESIVLVRGRDKVLRAFYNVCPHRGHQLLSGEGKAKNVITCPYHAWAFKLDGNLAHARNCENVANFDSDKAQLVPVRLEEYAGFVFINMDPNATSVEDQLPGLGAKVLEACPEVHDLKLAARFTTRTPANWKNIVDNYLECYHCGPAHPGFSDSVQVDRYWHTMHGNWTLQYGFAKPSEQSFKFEEGTDAAFHGFWLWPCTMLNVTPIKGMMTVIYEFPVDSETTLQNYDIYFTNEELTDEQKSLIEWYRDVFRPEDLRLVESVQKGLKSRGYRGQGRIMADSSGSGISEHGIAHFHNLLAQVFKD
notes: primers run from the start to the stop codon; No cleavage of the tag is described; calculated molecular mass 45,463 Da; Carries a Rieske-type [2Fe-2S] cluster and a mononuclear [Fe] center; also called oxygenase YeaW; catalytic unit YeaW
B8: the “stoichiometry N” value in series [8] stood at 3.
